# Laboratory results from US20160311886A1, “Constructs Binding to Phosphatidylserine and Their Use in Disease Treatment and Imaging” (Board of Regents, The University of Texas System, priority 2005, published 2016).
# Like-named read-outs stand apart in the source and are kept apart here.
# Tests used:
# [1] = Reactivity with plastic-immobilized phospholipid; conditions: read-out: EC50 of binding
# Procedure: Phospholipids were dissolved in n-hexane to a concentration of 50 μg/ml. 100 μl of this solution was added to wells of 96-well microtiter plates. After evaporation of the solvent in air, the plates were blocked for 2 h with 10% fetal bovine serum diluted in DPBS containing 2 mM Ca^2+ (binding buffer).
# 9D2 antibody or annexin V were diluted in the binding buffer in the presence of 10% serum at an initial concentration of 6.7 nM. Serial two-fold dilutions were prepared in the plates (100 μl per well). The plates were then incubated for 2 h at room temperature. The plates were washed and the 9D2 and annexin V were detected by goat anti-rat IgM conjugated to HRP and rabbit anti-human annexin V followed by goat anti-rabbit IgG conjugated to HRP (all diluted 1:1000), respectively. Secondary reagents were detected by using chromogenic substrate OPD followed by reading plates at 490 nm using a microplate reader (Molecular Devices, Palo Alto, Calif.).
# The specificity of the 9D2 antibody binding was validated by using control rat IgM of irrelevant specificity (Pharmingen, San Diego, Calif.). The specificity of annexin V binding to phospholipids, which is Ca^2+-dependent, was determined by diluting the reagent in the DPBS containing 5 mM EDTA. Additional negative controls consisted of washing the plates with the binding buffer containing 0.2% of a detergent Tween 20. This treatment extracts lipids, thus removing the phospholipid that was absorbed to plastic. Neither 9D2 antibody nor annexin V bound to detergent-washed plates.
# tumors [2] = experiment: Tumor treatment with 3G4 and its F(ab′)2 fragment; assay type: in vivo, mouse; conditions: treated on day 9
# [3] = 3G4 toxicity studies in mice; assay type: in vivo, mouse
# From the text: The following parameters were specifically examined.
# Mice retain normal physical signs, bone marrow cellularity, white blood cell counts, histology and coagulation functions.
# mCMV RVG102 = experiment: Survival of mCMV-infected mice; assay type: in vivo, mouse; conditions: past 90 days post infection; untreated 25%
# tumors [4] = experiment: 3G4 in syngeneic and xenogeneic tumor models (overall); assay type: in vivo; conditions: 100 μg i.p. 3 times a week
# [5] = mouse, in vivo, iv
# MDA-MB-435 breast tumors = experiment: 3G4 and chimeric 3G4 tumor treatment; assay type: in vivo, mouse; conditions: MD-MBA-435s; IP 800 μg day 15, 200 μg every two to three days, 400 μg day 35
# Procedure: Tumors were also established using MD-MBA-435s cells and treated as described above. […] The treatment of large L540 tumors, MDA-MB-231 and MD-MBA-435s tumor cells for 60 days was also effective. The antibodies caused tumor vascular injury, thrombosis and necrosis and retarded tumor growth, with no evidence of toxicity.
# MD-MBA-435s lucerifase cells were obtained from Dr. Angels Sierra Jimenez, Barcelona, Spain and were grown in 10% DMEM. Mice were injected with tumor cells as described as above, and at 2 weeks post injection, the tumors were measured and the volume recorded. […] Treatment was initiated by IP injection (800 μg) at day 15 and continued with injections of 200 μg every two to three days until the final injection of 400 μg at day 35. Tumor volumes and mouse body weights were measured on injection days. Mice were sacrificed and perfused with saline for 12 minutes. The organs and tumor were removed, snap-frozen in liquid nitrogen and the tumor sectioned for immunohistochemistical analysis.
# Groups of 8-10 female SCID mice were injected subcutaneously with 2×10^7 L540 cells or orthotopically with 1×10^7 MDA-MB-435 or MDA-MB-231 cells. BALB/c mice were injected subcutaneously with 1×10^6 Meth A cells. […] Animals were monitored three times a week for tumor size and body weight. […]
molecule,measurement,setting,value
Annexin V: High affinity PS binding ligand; natural ligand binding anionic phospholipids and PE,EC50,[1]; CL,0.13 nM
same,EC50,[1]; PA,0.1 nM
same,EC50,[1]; PC,> 8 nM
same,EC50,[1]; PE,0.1 nM
same,EC50,[1]; PG,0.25 nM
same,EC50,[1]; PI,0.05 nM
same,EC50,[1]; PS,0.1 nM
same,EC50,[1]; SM,> 8 nM
"3G4: Mouse IgG3 kappa monoclonal antibody to PS and anionic phospholipids; binding mediated by β2-glycoprotein I (antibody, listed as Mus musculus) VH: MGWTWIFILILSVTTGVHSEVQLQQSGPELEKPGASVKLSCKASGYSFTGYNMNWVKQSHGKSLEWIGHIDPYYGDTSYNQKFRGKATLTVDKSSSTAYMQLKSLTSEDSAVYYCVKGGYYGHWYFDVWGAGTTVTVSSATTTAPSVYPLVP VL: MDMRAPAQILGFLLLLFPGTRCDIQMTQSPSSLSASLGERVSLTCRASQDIGSSLNWLQQGPDGTIKRLIYATSSLDSGVPKRFSGSRSGSDYSLTISSLESEDFVDYYCLQYVSSPPTFGAGTKLELKRADAAPTVFIFGRIP",tumor growth,tumors [2],tumor growth was significantly slowed
same,"blood coagulation parameters (PT, APTT, D-dimer)",[3]; 100 μg IP three times a week,normal
same,toxicity,[3]; 1 mg purified antibody intraperitoneally,no toxicity was observed
same,physical signs of toxicity,"[3]; BALB/c mice, 100 μg IP three times a week for 2 to 4 weeks",No physical signs of toxicity have been observed
same,physical signs of toxicity,"[3]; single i.p. 2 mg, or 0.5 mg daily for 14 days",showed no physical signs of toxicity
same,Bone marrow cellularity and composition,"[3]; six injections, 100 μg",normal
same,survival,mCMV RVG102,100%
same,toxicity in tumor-bearing mice,tumors [4],No toxicity was observed
same,Volume of distribution,[5],100 mL/kg
same,half-life in the α-phase of clearance,[5],3 h
same,half-life in the β-phase of clearance,[5],5 days
same,activation of endothelial cells,HUVECs,does not activate resting HUVECs or HUVECs pre-activated with low concentrations of LPS
same,tumor growth vs control,MDA-MB-435 breast tumors,effectively retarded tumor growth
